The source of these data is patent US20200207868A1.

The assay deals with full-length extracellular region of human FGFR1 (human) (UniProt P11362). Put plainly: BLI, target binding to sensor-immobilized Fab. In general terms: BLI is a label-free optical method that tracks binding on a fibre tip over time.

B1: Library-S Fab against FGFR1 (Fab, V domains shown)
VH: EVQLVESGGGLVQPGGSLRLSCAASGFTFSSYGMHWVRQAPGKGLEWVAVISYDGSNKYYADSVKGRFTISRDNSKNTLYLQMNSLRAEDTAVYYCARSGRYGTYKGDFDYWGQGTLVTVSS
VL: DIQMTQSPSSLSASVGDRVTITCRASQGISNYLAWYQQKPGKAPKLLIYAASSLQSGVPSRFSGSRSGTDFTLTISSLQPEDFATYYCQQSYRSPLTFGQGTKVEIK
The Kd is the concentration at which binding is half-saturated. The low end stands for higher affinity, the high end for lower affinity. For the molecule B1, the Kd amounted to 22.4 nM.
